Each block holds one binder with its values, some of them ahead of it. Starred links: 1 amine or outer side, 2 acyl side, 3 side chain; linkers in the order of their positions; H or OH if unused. Positions of bridges follow the written chain, without caps; N, C: chain ends. Non-standard residues stand in square brackets, D forms with d. Primed or numbered codes have the meaning given here. B5(11) = 2,2-bis(4-pentenyl)glycine = 2-amino-2-(pent-4-en-1-yl)hept-6-enoic acid (stitching residue, bears both staples), C=CCCCC(CCCC=C)(N[*:1])C(=O)[*:2]; B5(16) = 2-amino-2-(pent-4-en-1-yl)hept-6-enoic acid = 2,2-bis(4-pentenyl)glycine (stitching residue), C=CCCCC(CCCC=C)(N[*:1])C(=O)[*:2]; B5(4) = 2,2-bis(4-pentenyl)glycine = 2-amino-2-(pent-4-en-1-yl)hept-6-enoic acid (stitching residue), C=CCCCC(CCCC=C)(N[*:1])C(=O)[*:2]; B5(9) = 2-amino-2-(pent-4-en-1-yl)hept-6-enoic acid (2,2-bis(4-pentenyl)glycine), C=CCCCC(CCCC=C)(N[*:1])C(=O)[*:2]; B5(19) = 2-amino-2-(pent-4-en-1-yl)hept-6-enoic acid (bis(4-pentenyl)glycine), C=CCCCC(CCCC=C)(N[*:1])C(=O)[*:2]; Phe(4-NH2) = Nc1ccc(C[C@H](N)C(=O)O)cc1; Bta = N[C@@H](Cc1csc2ccccc12)C(=O)O; αAllylPro = C=CC[C@@]1(C(=O)O)CCCN1; 3Thi = N[C@@H](Cc1ccsc1)C(=O)O; S8 = C=CCCCCCC[C@](C)(N)C(=O)O
Legend:
[1] = target: T1, full-length beta-Catenin (Uniprot ID P35222) (Homo sapiens (Human), UniProt P35222 2-781); assay: fluorescence polarization competition, full-length beta-catenin with 5FAM-TCF4(10-53) probe as competitor
T1 construct: 'mature' is the nearest allowed form; also called bCat; B-Catenin
T1 sequence: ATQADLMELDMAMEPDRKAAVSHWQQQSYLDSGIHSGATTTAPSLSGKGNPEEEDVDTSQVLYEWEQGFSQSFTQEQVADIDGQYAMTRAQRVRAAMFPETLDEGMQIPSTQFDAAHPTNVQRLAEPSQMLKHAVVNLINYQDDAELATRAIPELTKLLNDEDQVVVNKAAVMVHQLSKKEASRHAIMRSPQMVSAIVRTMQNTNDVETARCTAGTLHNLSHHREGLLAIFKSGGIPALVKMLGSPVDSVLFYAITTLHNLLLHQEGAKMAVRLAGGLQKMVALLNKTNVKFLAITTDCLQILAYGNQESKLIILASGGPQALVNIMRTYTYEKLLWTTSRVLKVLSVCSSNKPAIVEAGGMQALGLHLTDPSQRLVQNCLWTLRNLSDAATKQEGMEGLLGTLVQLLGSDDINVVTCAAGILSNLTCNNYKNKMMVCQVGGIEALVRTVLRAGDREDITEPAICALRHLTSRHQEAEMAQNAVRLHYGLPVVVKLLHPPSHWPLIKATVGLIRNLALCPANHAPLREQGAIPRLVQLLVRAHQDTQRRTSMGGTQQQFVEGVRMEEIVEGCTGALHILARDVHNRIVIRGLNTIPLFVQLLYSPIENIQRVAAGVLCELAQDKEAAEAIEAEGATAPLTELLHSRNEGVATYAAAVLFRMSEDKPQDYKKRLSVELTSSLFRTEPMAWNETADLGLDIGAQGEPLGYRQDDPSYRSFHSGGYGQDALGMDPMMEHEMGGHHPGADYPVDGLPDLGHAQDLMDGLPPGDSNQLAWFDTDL
Procedure: (§1) The plate was incubated protected from light for 60 minutes at 20° C. prior to read. Reads were performed on a CLARIOstar plate reader (BMG Labtech) in duplicate, and data were fitted to a 1:1 binding model with hill slope using an in-house script. All provided concentrations are final concentrations.

[2] = target: T2, full-length beta-Catenin (Uniprot ID P35222) (Homo sapiens (Human), UniProt P35222 1-781); assay: FP competition vs 5FAM-TCF4(10-53) probe on full-length beta-catenin
T2 construct: the AlphaScreen used a Histidine (Nickel Chelate) detection kit, so a His tag is likely but not described; also called B-Catenin; bCat
T2 sequence: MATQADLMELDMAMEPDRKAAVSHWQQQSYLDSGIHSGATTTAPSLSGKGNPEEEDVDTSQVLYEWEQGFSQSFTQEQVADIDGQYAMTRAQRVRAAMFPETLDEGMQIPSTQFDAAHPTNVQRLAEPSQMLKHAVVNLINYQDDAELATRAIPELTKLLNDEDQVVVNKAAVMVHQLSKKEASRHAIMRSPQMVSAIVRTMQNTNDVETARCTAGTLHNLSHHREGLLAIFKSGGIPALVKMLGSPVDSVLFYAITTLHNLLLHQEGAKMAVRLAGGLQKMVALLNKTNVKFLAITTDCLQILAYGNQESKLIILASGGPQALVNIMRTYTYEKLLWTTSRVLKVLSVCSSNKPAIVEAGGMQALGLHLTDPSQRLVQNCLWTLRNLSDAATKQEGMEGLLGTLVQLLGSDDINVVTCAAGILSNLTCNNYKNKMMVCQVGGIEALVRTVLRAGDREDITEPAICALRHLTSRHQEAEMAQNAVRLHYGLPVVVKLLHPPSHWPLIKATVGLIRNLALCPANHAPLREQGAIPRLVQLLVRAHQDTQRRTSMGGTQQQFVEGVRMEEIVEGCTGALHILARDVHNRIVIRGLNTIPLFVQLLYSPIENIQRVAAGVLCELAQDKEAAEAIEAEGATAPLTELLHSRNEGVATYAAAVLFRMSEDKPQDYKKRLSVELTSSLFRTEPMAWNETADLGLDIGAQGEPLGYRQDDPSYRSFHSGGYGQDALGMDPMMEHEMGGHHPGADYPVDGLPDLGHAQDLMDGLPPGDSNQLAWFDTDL
Procedure: as §1

B1: I-646 (peptide)
peptide: Ac-[αAllylPro]DI[B5(9)]DEAAFQ[S8]F[Bta]V-NH2
modifications: staple 1-4, 4-11
notes: Stapled peptide composition; later-eluting HPLC peak (staple isomer)
EC50 [1]: 461 nM

B3: I-649 (peptide)
peptide: Ac-[αAllylPro]DI[B5(9)]DEFAFQ[S8]F[Bta]Q-NH2
modifications: staple 1-4, 4-11
notes: Stapled peptide composition; earlier-eluting HPLC peak (staple isomer)
EC50 [1]: 209 nM

B4: I-665 (peptide)
peptide: Ac-[αAllylPro]DI[B5(9)]DEAWFQ[S8]F[Bta]Q-NH2
modifications: staple 1-4, 4-11
notes: as for B1
EC50 [1]: 923 nM

B6: I-662 (peptide)
peptide: XDIXDEASFQXFXQ
modifications: not fully specified; As printed: Ac-PL3-Asp-Ile-B5-Asp-Glu-Ala-Ser-Phe-Gln-S8-Phe-BztA-Gln-NH2; N-terminal Ac; PL3 at 1, B5 at 4, S8 at 11 (stapled 1-4 and 4-11); BztA at 13; C-terminal NH2
notes: as for B1
EC50 [1]: 26 nM

Binder: Ac-[αAllylPro]DI[B5(19)]DEAQFQ[S8]F[Bta]Q-NH2 (staple 1-4, 4-11, Stapled peptide composition) [I-663]
EC50 [1]: 43 nM

B8: I-659 (peptide)
peptide: XDIXDEALFQXFXQ
modifications: not fully specified; As printed: Ac-PL3-Asp-Ile-B5-Asp-Glu-Ala-Leu-Phe-Gln-S8-Phe-BztA-Gln-NH2; N-terminal Ac; PL3 at 1, B5 at 4, S8 at 11 (stapled 1-4 and 4-11); BztA at 13; C-terminal NH2
notes: as for B1
EC50 [1]: 430 nM

B9: I-658 (peptide)
peptide: XDIXDEALFQXFXQ
modifications: not fully specified; As printed: Ac-PL3-Asp-Ile-B5-Asp-Glu-Ala-Leu-Phe-Gln-S8-Phe-BztA-Gln-NH2; N-terminal Ac; PL3 at 1, B5 at 4, S8 at 11 (stapled 1-4 and 4-11); BztA at 13; C-terminal NH2
notes: as for B3
EC50 [1]: 546 nM

B10: I-652 (peptide)
peptide: Ac-[αAllylPro]DI[B5(16)]DESAFQ[S8]F[Bta]Q-NH2
modifications: staple 1-4, 4-11
notes: as for B1
EC50 [1]: 72 nM

Binder: Ac-[αAllylPro]DI[B5(19)]DEAFFQ[S8]F[Bta]Q-NH2 (staple 1-4, 4-11, Stapled peptide composition) [I-660]
EC50 [1]: 544 nM

B12: I-648 (peptide)
peptide: Ac-[αAllylPro]DI[B5(9)]DELAFQ[S8]F[Bta]Q-NH2
modifications: staple 1-4, 4-11
notes: as for B1
EC50 [1]: 233 nM

B14: I-322 (peptide)
peptide: Ac-[αAllylPro]DA[B5(11)]DDAA[Phe(4-NH2)]V[S8]FWQ-NH2
modifications: staple 1-4, 4-11; not fully specified; printed as Ac-PL3-Asp-Ala-B5-Asp-Asp-Ala-Ala-4AmPhe-Val-S8-Phe-Trp-Gln-NH2
notes: Ac-PL3-Asp-Ala-B5-Asp-Asp-Ala-Ala-4AmPhe-Val-S8-Phe-Trp-Gln-NH2; stapled peptide composition
EC50 [2]: 5000 nM

Results, then the binder that gave them:

EC50 [1]: 45 nM
B2: I-661 (peptide)
peptide: XDIXDEASFQXFXQ
modifications: not fully specified; As printed: Ac-PL3-Asp-Ile-B5-Asp-Glu-Ala-Ser-Phe-Gln-S8-Phe-BztA-Gln-NH2; N-terminal Ac; PL3 at 1, B5 at 4, S8 at 11 (stapled 1-4 and 4-11); BztA at 13; C-terminal NH2
notes: as for B3

EC50 [1]: 137 nM
B5: I-650 (peptide)
peptide: Ac-[αAllylPro]DI[B5(16)]DEFAFQ[S8]F[Bta]Q-NH2
modifications: staple 1-4, 4-11
notes: as for B1

EC50 [1]: 186 nM
B7: I-651 (peptide)
peptide: Ac-[αAllylPro]DI[B5(16)]DESAFQ[S8]F[Bta]Q-NH2
modifications: staple 1-4, 4-11
notes: as for B3

EC50 [1]: 445 nM
B11: I-647 (peptide)
peptide: Ac-[αAllylPro]DI[B5(9)]DELAFQ[S8]F[Bta]Q-NH2
modifications: staple 1-4, 4-11
notes: as for B3

EC50 [2]: 1750 nM
B13: I-326 (peptide)
peptide: Ac-[αAllylPro]DA[B5(4)]DDAA[3Thi]V[S8]FWQ-NH2
modifications: staple 1-4, 4-11
notes: Ac-PL3-Asp-Ala-B5-Asp-Asp-Ala-Ala-3Thi-Val-S8-Phe-Trp-Gln-NH2; stapled peptide composition

Source: patent publication US20240116985A1 (published 2024)
